Patent US20030148956A1 (PROCTER AND GAMBLE, published 2003)
Numbering of substitutions follows the chain as printed. Ends that are not written are not given here.

B1: SEQ ID NO 275 (peptide)
peptide: ZGPPISIDLPFQLLRKVIEIEKQEKEKQQAANNANLLANI
modifications: C-terminal amide
B2: SEQ ID NO 277 (peptide)
peptide: B1 peptide with N35H, N39H
modifications: C-terminal amide
B3: SEQ ID NO 278 (peptide)
peptide: B1 peptide with N35R, A38D, N39T
modifications: C-terminal amide
B4: SEQ ID NO 282 (peptide)
peptide: B1 peptide with F11I, Q12F, V17M, N35R, N39R
modifications: C-terminal amide
B5: SEQ ID NO 284 (peptide)
peptide: ZGPPISIDLPTWLLRKVIEIEKQEKEKQQAANNRLLLDTI
modifications: C-terminal amide
B6: SEQ ID NO 287 (peptide)
peptide: ZGPPISIDLPYQLLRKMIEIEKQEKEKQQAANNARLLAR
modifications: C-terminal amide
B7: SEQ ID NO 288 (peptide)
peptide: B6 peptide
modifications: C-terminal amide
B8: SEQ ID NO 269 (peptide)
peptide: NDDPPISIDLPLILLRNMIEMARIENEREQAGLNAKYLAEV-NH2
B9: SEQ ID NO 265 (peptide)
peptide: NDDPPISIDLPQYLLRNMIEMARIENEREQAGLNAKYLAEV-NH2
B10: SEQ ID NO 268 (peptide)
peptide: NDDPPISIDLPLLLLRNMIEMARIENEREQAGLNAKYLAEV-NH2
B11: SEQ ID NO 262 (peptide)
peptide: NDDPPISIDLPFHLLRNMIEMARIENEREQAGLNAKYLAEV-NH2
B12: SEQ ID NO 261 (peptide)
peptide: NDDPPISIDLPFYLLRNMIEMARIENEREQAGLNAKYLAEV-NH2
B13: SEQ ID NO 260 (peptide)
peptide: NDDPPISIDLPFLLLRNMIEMARIENEREQAGLNAKYLAEV-NH2
B14: SEQ ID NO 270 (peptide)
peptide: NDDPPISIDLPLQLLRNMIEMARIENEREQAGLNAKYLAEV-NH2
B15: SEQ ID NO 259 (peptide)
peptide: NDDPPISIDLPLHLLRNMIEMARIENEREQAGLNAKYLAEV-NH2
B16: SEQ ID NO 271 (peptide)
peptide: NDDPPISIDLPLYLLRNMIEMARIENEREQAGLNAKYLAEV-NH2

What follows are binders tested against T1, corticotropin releasing factor 2 receptor (assay: cell-based or functional assay).
T1 sequence (Q13324 whole entry, species assumed, looked up): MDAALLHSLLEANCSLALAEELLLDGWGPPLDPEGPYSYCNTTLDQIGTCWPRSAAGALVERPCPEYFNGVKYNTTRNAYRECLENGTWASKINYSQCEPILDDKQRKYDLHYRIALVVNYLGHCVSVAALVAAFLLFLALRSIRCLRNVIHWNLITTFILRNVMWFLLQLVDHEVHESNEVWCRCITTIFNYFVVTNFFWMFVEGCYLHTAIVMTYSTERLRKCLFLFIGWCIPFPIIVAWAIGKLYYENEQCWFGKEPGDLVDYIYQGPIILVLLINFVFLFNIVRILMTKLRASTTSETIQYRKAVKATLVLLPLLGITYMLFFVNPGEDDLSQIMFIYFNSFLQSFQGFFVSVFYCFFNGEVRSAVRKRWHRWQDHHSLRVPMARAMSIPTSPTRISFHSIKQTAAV
B1 was tested, and the “CRF2R EC50” value was 46.6 nM and the “CRF2R Emax %” value was 100%. For B2, the “CRF2R EC50” value was 28.2 nM and the “CRF2R Emax %” value was 100%. For B3, the “CRF2R EC50” value was 19.6 nM and the “CRF2R Emax %” value was 100%. For B4, the “CRF2R EC50” value was 25.8 nM and the “CRF2R Emax %” value was 60.8%. For B5, the “CRF2R EC50” value was 100 nM and the “CRF2R Emax %” value was 100%. B6 was tested, and the “CRF2R EC50” value was 11.3 nM and the “CRF2R Emax %” value was 100%. B7 was tested, and the “CRF2R EC50” value was 14.7 nM and the “CRF2R Emax %” value was 100%. With B8 the “CRF2R EC50” value was 100 nM and the “CRF2R Emax %” value was 77.3%. In the case of B9, the “CRF2R EC50” value is reported as 100 nM and the “CRF2R Emax %” value is reported as 23.4%. In the case of B10, the “CRF2R EC50” value is reported as 100 nM and the “CRF2R Emax %” value is reported as 59%. With B11 the “CRF2R EC50” value was 100 nM and the “CRF2R Emax %” value was 92.2%. B12 was tested, and the “CRF2R EC50” value was 100 nM and the “CRF2R Emax %” value was 95.3%. For B13, the “CRF2R EC50” value was 100 nM and the “CRF2R Emax %” value was 89.3%. B14 was tested, and the “CRF2R EC50” value was 100 nM and the “CRF2R Emax %” value was 19.3%. For B15, the “CRF2R EC50” value was 100 nM and the “CRF2R Emax %” value was 65%. With B16 the “CRF2R EC50” value was 48.1 nM and the “CRF2R Emax %” value was 69%.

These binders were tested against corticotropin releasing factor 1 receptor (assay: cell-based or functional assay).
With B1 the “CRF1R EC50” value was 1000 nM and the “CRF1R Emax %” value was 38.3%. With B2 the “CRF1R EC50” value was 1000 nM and the “CRF1R Emax %” value was 39.9%. For B3, the “CRF1R EC50” value was 1000 nM and the “CRF1R Emax %” value was 48.7%. With B4 the “CRF1R EC50” value was 1000 nM and the “CRF1R Emax %” value was 21.8%. With B5 the “CRF1R EC50” value was 1000 nM and the “CRF1R Emax %” value was 27.7%. B6 was tested, and the “CRF1R EC50” value was 1000 nM. For B7, the “CRF1R EC50” value was 838 nM. With B8 the “CRF1R EC50” value was 1000 nM and the “CRF1R Emax %” value was 44.3%. In the case of B9, the “CRF1R EC50” value is reported as 1000 nM and the “CRF1R Emax %” value is reported as 9.3%. B10 was tested, and the “CRF1R EC50” value was 1000 nM and the “CRF1R Emax %” value was 14.2%. B11 was tested, and the “CRF1R EC50” value was 408 nM and the “CRF1R Emax %” value was 100%. In the case of B12, the “CRF1R EC50” value is reported as 274 nM and the “CRF1R Emax %” value is reported as 100%. With B13 the “CRF1R EC50” value was 834 nM and the “CRF1R Emax %” value was 89.7%. With B14 the “CRF1R EC50” value was 1000 nM and the “CRF1R Emax %” value was 7.85%. B15 was tested, and the “CRF1R EC50” value was 820 nM and the “CRF1R Emax %” value was 83.6%. With B16 the “CRF1R EC50” value was 815 nM and the “CRF1R Emax %” value was 80.7%.
